Paper PMC5737863, “Entirely enzymatic nanofabrication of DNA–protein conjugates”

What was measured:
[1] = target: T1, mVirD2 (Agrobacterium tumefaciens (from …, UniProt P06668 1-204)); test: EMSA; apparent Kd; 1 mM Mg2+; covalent conjugation; Conjugation/EMSA: TKM buffer (50 mM Tris-HCl pH 8, 150 mM KCl, 1 mM MgCl2, 10% glycerol), 37 C, 1 h, 10% native PAGE; HER2 beads: PBS, room temperature, 15 min; details: protein: recombinant; tags: N-terminal 6xHis; label: 3' Cy3
T1 sequence: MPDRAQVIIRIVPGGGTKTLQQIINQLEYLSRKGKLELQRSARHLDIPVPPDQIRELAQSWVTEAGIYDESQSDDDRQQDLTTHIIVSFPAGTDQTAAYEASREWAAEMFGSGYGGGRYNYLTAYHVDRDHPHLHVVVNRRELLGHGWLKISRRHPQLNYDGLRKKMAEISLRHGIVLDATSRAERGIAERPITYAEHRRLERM

[2] = target: T1, mVirD2; test: EMSA; 1 mM Mg2+; higher conjugate yield than T1; Conjugation/EMSA: TKM buffer (50 mM Tris-HCl pH 8, 150 mM KCl, 1 mM MgCl2, 10% glycerol), 37 C, 1 h, 10% native PAGE; HER2 beads: PBS, room temperature, 15 min; details: protein: recombinant; tags: N-terminal 6xHis; label: 3' Cy3
[3] = target: T1, mVirD2; test: EMSA; non-covalent; no nicking; Conjugation/EMSA: TKM buffer (50 mM Tris-HCl pH 8, 150 mM KCl, 1 mM MgCl2, 10% glycerol), 37 C, 1 h, 10% native PAGE; HER2 beads: PBS, room temperature, 15 min; details: protein: recombinant; tags: N-terminal 6xHis; single-stranded
[4] = target: HER2 (UniProt P04626 23-652); test: bead pull-down, GFP fluorescence; aptamer conjugated to mVirD2-GFP; PBS, room temperature; Conjugation/EMSA: TKM buffer (50 mM Tris-HCl pH 8, 150 mM KCl, 1 mM MgCl2, 10% glycerol), 37 C, 1 h, 10% native PAGE; HER2 beads: PBS, room temperature, 15 min; details: protein: commercial; tags: Fc; label: GFP (via conjugated protein)
[5] = target: T2, mVirD2-GFP (Agrobacterium tumefaciens (from …, UniProt P06668 1-204)); test: denaturing PAGE shift; covalent conjugate; Conjugation/EMSA: TKM buffer (50 mM Tris-HCl pH 8, 150 mM KCl, 1 mM MgCl2, 10% glycerol), 37 C, 1 h, 10% native PAGE; HER2 beads: PBS, room temperature, 15 min; details: protein: recombinant; tags: N-terminal 6xHis
T2 sequence: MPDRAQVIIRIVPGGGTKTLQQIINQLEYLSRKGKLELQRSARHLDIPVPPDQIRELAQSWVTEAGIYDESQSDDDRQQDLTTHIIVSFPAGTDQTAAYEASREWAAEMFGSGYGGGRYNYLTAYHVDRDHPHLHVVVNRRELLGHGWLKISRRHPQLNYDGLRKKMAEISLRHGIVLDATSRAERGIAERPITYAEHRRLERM

[6] = target: T1, mVirD2; test: denaturing PAGE and SDS-PAGE shift; covalent conjugate; Conjugation/EMSA: TKM buffer (50 mM Tris-HCl pH 8, 150 mM KCl, 1 mM MgCl2, 10% glycerol), 37 C, 1 h, 10% native PAGE; HER2 beads: PBS, room temperature, 15 min; details: protein: recombinant; tags: N-terminal 6xHis

For GCTCAAATTACAACGGTATATATCCTGCCAGTCAG (ssDNA) [T1 (VirTarget)], the Kd [1] was 468 ± 68 nM.

GCTCAAATTACAACGGTATATATCCTGCCAGTCAG (XNA, phosphorothioate bonds at underlined bases (underline lost in text)) [PS-T1VirTarget]: binds [2].

B1: ss Cut site RNA (mixed)
DNA: GCTCAAATTACAACGGTATATATCCTGCCAGTCAG
modifications: DNA-RNA chimera; AT-rich binding sequence is DNA, cut site is RNA (bold lost in text)
B1: binds [3].

B2: HeA2_3 aptamer, nicked and conjugated to mVirD2-GFP (ssDNA)
DNA: CCAGTCAGTAGGGAAGAGAAGGACATATGATTCTAAAAGGATTCTTCCCAAGGGGATCCAATTCAAACAGC
modifications: 5' end covalently linked to mVirD2-GFP Tyr29
B2: binds [4].

B3: MOSIC HeA2_3 with mVirD2 site (ssDNA)
DNA: GCTCAAATTACAACGGTATATATCCTGCCAGTCAGTAGGGAAGAGAAGGACATATGATTCTAAAAGGATTCTTCCCAAGGGGATCCAATTCAAACAGC
B3: binds [5]; binds [6].
